In US20220226382A1, “Nutritional Composition” (MORINAGA MILK INDUSTRY CO., LTD., priority 2019, published 2022):

Test system: simian rotavirus SA11 strain
Assay: Plaque assay: antiviral action against simian rotavirus in MA104 cells (infection-suppressing ratio)
Format: cell-based
Settings: LF alone, n=3
Experimental: The simian rotavirus SA11 strain (Nihon Bioresearch Inc.) was inoculated to the MA104 cells (Sigma-Aldrich) of African green monkey kidney maintained in a minimum essential medium (Sigma-Aldrich, henceforth referred to simply as “medium”). The simian rotavirus SA11 strain, for example, can be obtained from American Type Culture Collection (ATCC) as ATCC VR-1565. To the medium, lactoferrin (LF) and/or the human milk oligosaccharide(s) shown below were added beforehand alone or in combination at the following concentrations, respectively (n=3).
LF (produced by Morinaga Milk Industry Co., Ltd.): 0, 0.1 or 1.0 mg/mL
2′-Fucosyllactose (2′-FL, Funakoshi Co., Ltd.): 0, 0.1, 0.5, or 2.5 mg/mL
3-Fucosyllactose (3-FL, Funakoshi Co., Ltd.): 0, 0.1, or 0.5 mg/mL
3′-Sialyllactose (3′-SL, Funakoshi Co., Ltd.): 0, 0.1, or 0.5 mg/mL
6′-Sialyllactose (6′-SL, Funakoshi Co., Ltd.): 0, 0.1, or 0.5 mg/mL […]
Degree of infection was evaluated based on the number of “plaques” formed when the cells were infected with the virus. Specifically, the antiviral effects of lactoferrin and human milk oligosaccharides were evaluated based on “plaque-suppressing ratio (%)”, i.e., the ratio of “plaque counts observed with lactoferrin and/or human milk oligosaccharide(s) supplementation” to “plaque counts observed without these supplementation”. […]

B1: lactoferrin (protein, UniProt P24627 20-708, looked up)
Lactotransferrin: APRKNVRWCTISQPEWFKCRRWQWRMKKLGAPSITCVRRAFALECIRAIAEKKADAVTLDGGMVFEAGRDPYKLRPVAAEIYGTKESPQTHYYAVAVVKKGSNFQLDQLQGRKSCHTGLGRSAGWIIPMGILRPYLSWTESLEPLQGAVAKFFSASCVPCIDRQAYPNLCQLCKGEGENQCACSSREPYFGYSGAFKCLQDGAGDVAFVKETTVFENLPEKADRDQYELLCLNNSRAPVDAFKECHLAQVPSHAVVARSVDGKEDLIWKLLSKAQEKFGKNKSRSFQLFGSPPGQRDLLFKDSALGFLRIPSKVDSALYLGSRYLTTLKNLRETAEEVKARYTRVVWCAVGPEEQKKCQQWSQQSGQNVTCATASTTDDCIVLVLKGEADALNLDGGYIYTAGKCGLVPVLAENRKSSKHSSLDCVLRPTEGYLAVAVVKKANEGLTWNSLKDKKSCHTAVDRTAGWNIPMGLIVNQTGSCAFDEFFSQSCAPGADPKSRLCALCAGDDQGLDKCVPNSKEKYYGYTGAFRCLAEDVGDVAFVKNDTVWENTNGESTADWAKNLNREDFRLLCLDGTRKPVTEAQSCHLAVAPNHAVVSRSDRAAHVKQVLLHQQALFGKNGKNCPDKFCLFKSETKNLLFNDNTECLAKLGGRPTYEEYLGTEYVTAIANLKKCSTSPLLEACAFLTR
notes: produced by Morinaga Milk Industry Co., Ltd
Work on B1 yielded an infection-suppressing ratio (0.1 mg/mL) of 8.7% and an infection-suppressing ratio (1.0 mg/mL) of 39%.
